Test results: patent publication US20100260668A1 (published 2010)

Tests used:
[1] = target: T1, DLL4 (DLL4 ECD/His tag) (UniProt Q9NR61 27-529, limits assumed); assay: Direct Bind ELISA, antigen on plate; C-terminal VD
T1 construct: extracellular domain; Bought reagent
Experimental: (§1) Enzyme Linked Immunosorbent Assays to screen for antibodies that bind a desired target antigen were performed as follows. […] Plates were washed four times with PBS containing 0.02% Tween 20. Plates were blocked by the addition of 300 μL/well blocking solution (non-fat dry milk powder, various retail suppliers, diluted to 2% in PBS) for ½ hour at room temperature. Plates were washed four times after blocking with PBS containing 0.02% Tween 20.
(§2) Alternatively, one hundred microliters per well of 10 μg/ml of Histidine (His) tagged desired target antigen (R&D Systems, Minneapolis, Minn.) was added to ELISA plates coated with monoclonal mouse anti-polyHistidine antibody as described above and incubated for 1 hour at room temperature. Wells were washed four times with PBS containing 0.02% Tween 20.
(§3) One hundred microliters of antibody or DVD-Ig preparations diluted in blocking solution as described above was added to the desired target antigen plate or desired target antigen/FC fusion plate or the anti-polyHistidine antibody/His tagged desired target antigen plate prepared as described above and incubated for 1 hour at room temperature. Wells are washed four times with PBS containing 0.02% Tween 20.

[2] = target: T1, DLL4 (DLL4 ECD/His tag); assay: Direct Bind ELISA, antigen on plate; N-terminal VD
Experimental: as §1, §2, §3

[3] = target: T2, PlGF (Placental GF) (UniProt P49763-2 21-149, limits assumed); assay: Direct Bind ELISA, antigen on plate; C-terminal VD
T2 construct: Bought reagent
T2 sequence (looked up): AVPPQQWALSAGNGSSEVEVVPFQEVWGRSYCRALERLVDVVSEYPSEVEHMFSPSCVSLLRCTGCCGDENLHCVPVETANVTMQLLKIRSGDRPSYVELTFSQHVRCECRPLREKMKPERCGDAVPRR
Experimental: as §1, §2, §3

[4] = target: T2, PlGF (Placental GF); assay: Direct Bind ELISA, antigen on plate; N-terminal VD
Experimental: as §1, §2, §3

[5] = target: T3, ErbB3 (ErbB3 ECD/FC Chimera-His tag) (UniProt P21860 20-643, limits assumed); assay: Direct Bind ELISA, antigen on plate
T3 construct: extracellular domain; Bought reagent
Experimental: as §1, §2, §3

[6] = target: T4, human DLL4 extracellular domain (human, UniProt Q9NR61 27-529, biotin label in the Notch-1 competition ELISA (sites not given)); assay: competition ELISA: biotin-labelled human DLL4 ECD pre-mixed with DVD-Ig, then on coated human Notch-1 (competitor Notch-1)
T4 construct: extracellular domain; also called biotin labeled human DLL4 extracellular domain

B1: DVD043 (VEGF (seq. 1) and DLL4 (seq. 1) DVD-Ig) (bispecific antibody, IgG1)
VH: EVQLVESGGGLVQPGGSLRLSCAASGYTFTNYGMNWVRQAPGKGLEWVGWINTYTGEPTYAADFKRRFTFSLDTSKSTAYLQMNSLRAEDTAVYYCAKYPHYYGSSHWYFDVWGQGTLVTVSSASTKGPEVQLVESGGGLVQPGGSLRLSCAASGFTFTDNWISWVRQAPGKGLEWVGYISPNSGFTYYADSVKGRFTISADTSKNTAYLQMNSLRAEDTAVYYCARDNFGGYFDYWGQGTLVTVSS
VL: DIQMTQSPSSLSASVGDRVTITCSASQDISNYLNWYQQKPGKAPKVLIYFTSSLHSGVPSRFSGSGSGTDFTLTISSLQPEDFATYYCQQYSTVPWTFGQGTKVEIKRTVAAPDIQMTQSPSSLSASVGDRVTITCRASQDVSTAVAWYQQKPGKAPKLLIYSASFLYSGVPSRFSGSGSGTDFTLTISSLQPEDFATTYYCQQSYTGTVTFGQGTKVEIKR
notes: HC vector V1 (wild-type hIgG1 constant), LC vector V2 (kappa constant); also called DVD043H; DVD043L
[1]
  EC50: 2.12 nM

B2: DVD044 (DLL4 (seq. 1) and VEGF (seq. 1) DVD-Ig) (bispecific antibody, IgG1)
VH: EVQLVESGGGLVQPGGSLRLSCAASGFTFTDNWISWVRQAPGKGLEWVGYISPNSGFTYYADSVKGRFTISADTSKNTAYLQMNSLRAEDTAVYYCARDNFGGYFDYWGQGTLVTVSSASTKGPEVQLVESGGGLVQPGGSLRLSCAASGYTFTNYGMNWVRQAPGKGLEWVGWINTYTGEPTYAADFKRRFTFSLDTSKSTAYLQMNSLRAEDTAVYYCAKYPHYYGSSHWYFDVWGQGTLVTVSS
VL: DIQMTQSPSSLSASVGDRVTITCRASQDVSTAVAWYQQKPGKAPKLLIYSASFLYSGVPSRFSGSGSGTDFTLTISSLQPEDFATTYYCQQSYTGTVTFGQGTKVEIKRTVAAPDIQMTQSPSSLSASVGDRVTITCSASQDISNYLNWYQQKPGKAPKVLIYFTSSLHSGVPSRFSGSGSGTDFTLTISSLQPEDFATYYCQQYSTVPWTFGQGTKVEIKR
notes: HC vector V1 (wild-type hIgG1 constant), LC vector V2 (kappa constant); also called DVD044H; DVD044L
[2]
  EC50: 0.53 nM

B3: DVD257 (DLL-4 (seq. 1) and PLGF (seq. 1) DVD-Ig) (bispecific antibody, IgG1)
VH: EVQLVESGGGLVQPGGSLRLSCAASGFTFTDNWISWVRQAPGKGLEWVGYISPNSGFTYYADSVKGRFTISADTSKNTAYLQMNSLRAEDTAVYYCARDNFGGYFDYWGQGTLVTVSSASTKGPQVQLQQSGAELVKPGASVKISCKASGYTFTDYYINWVKLAPGQGLEWIGWIYPGSGNTKYNEKFKGKATLTIDTSSSTAYMQLSSLTSEDTAVYFCVRDSPFFDYWGQGTLLTVSS
VL: DIQMTQSPSSLSASVGDRVTITCRASQDVSTAVAWYQQKPGKAPKLLIYSASFLYSGVPSRFSGSGSGTDFTLTISSLQPEDFATTYYCQQSYTGTVTFGQGTKVEIKRTVAAPDIVLTQSPDSLAVSLGERVTMNCKSSQSLLNSGMRKSFLAWYQQKPGQSPKLLIYWASTRESGVPDRFTGSGSGTDFTLTISSVQAEDVAVYYCKQSYHLFTFGSGTKLEIKR
notes: Outer AB015, inner AB047; HC vector V1 (wild-type hIgG1 constant), LC vector V2 (kappa constant); also called 7H; VD257L
[3]
  EC50: 2 nM
[2]
  EC50: 0.28 nM

B4: DVD258 (PLGF (seq. 1) and DLL-4 (seq. 1) DVD-Ig) (bispecific antibody, IgG1)
VH: QVQLQQSGAELVKPGASVKISCKASGYTFTDYYINWVKLAPGQGLEWIGWIYPGSGNTKYNEKFKGKATLTIDTSSSTAYMQLSSLTSEDTAVYFCVRDSPFFDYWGQGTLLTVSSASTKGPEVQLVESGGGLVQPGGSLRLSCAASGFTFTDNWISWVRQAPGKGLEWVGYISPNSGFTYYADSVKGRFTISADTSKNTAYLQMNSLRAEDTAVYYCARDNFGGYFDYWGQGTLVTVSS
VL: DIVLTQSPDSLAVSLGERVTMNCKSSQSLLNSGMRKSFLAWYQQKPGQSPKLLIYWASTRESGVPDRFTGSGSGTDFTLTISSVQAEDVAVYYCKQSYHLFTFGSGTKLEIKRTVAAPDIQMTQSPSSLSASVGDRVTITCRASQDVSTAVAWYQQKPGKAPKLLIYSASFLYSGVPSRFSGSGSGTDFTLTISSLQPEDFATTYYCQQSYTGTVTFGQGTKVEIKR
notes: Outer AB047, inner AB015; HC vector V1 (wild-type hIgG1 constant), LC vector V2 (kappa constant); also called VD258H; VD258L
[1]
  EC50: 2.3 nM
[4]
  EC50: 0.08 nM

B5: DVD259 (VEGF (seq. 1) and PLGF (seq. 1) DVD-Ig) (bispecific antibody, IgG1)
VH: EVQLVESGGGLVQPGGSLRLSCAASGYTFTNYGMNWVRQAPGKGLEWVGWINTYTGEPTYAADFKRRFTFSLDTSKSTAYLQMNSLRAEDTAVYYCAKYPHYYGSSHWYFDVWGQGTLVTVSSASTKGPQVQLQQSGAELVKPGASVKISCKASGYTFTDYYINWVKLAPGQGLEWIGWIYPGSGNTKYNEKFKGKATLTIDTSSSTAYMQLSSLTSEDTAVYFCVRDSPFFDYWGQGTLLTVSS
VL: DIQMTQSPSSLSASVGDRVTITCSASQDISNYLNWYQQKPGKAPKVLIYFTSSLHSGVPSRFSGSGSGTDFTLTISSLQPEDFATYYCQQYSTVPWTFGQGTKVEIKRTVAAPDIVLTQSPDSLAVSLGERVTMNCKSSQSLLNSGMRKSFLAWYQQKPGQSPKLLIYWASTRESGVPDRFTGSGSGTDFTLTISSVQAEDVAVYYCKQSYHLFTFGSGTKLEIKR
notes: HC vector V1 (wild-type hIgG1 constant), LC vector V2 (kappa constant); also called VD259H; VD259L
[3]
  EC50: 1.3 nM

B6: DVD260 (PLGF (seq. 1) and VEGF (seq. 1) DVD-Ig) (bispecific antibody, IgG1)
VH: QVQLQQSGAELVKPGASVKISCKASGYTFTDYYINWVKLAPGQGLEWIGWIYPGSGNTKYNEKFKGKATLTIDTSSSTAYMQLSSLTSEDTAVYFCVRDSPFFDYWGQGTLLTVSSASTKGPEVQLVESGGGLVQPGGSLRLSCAASGYTFTNYGMNWVRQAPGKGLEWVGWINTYTGEPTYAADFKRRFTFSLDTSKSTAYLQMNSLRAEDTAVYYCAKYPHYYGSSHWYFDVWGQGTLVTVSS
VL: DIVLTQSPDSLAVSLGERVTMNCKSSQSLLNSGMRKSFLAWYQQKPGQSPKLLIYWASTRESGVPDRFTGSGSGTDFTLTISSVQAEDVAVYYCKQSYHLFTFGSGTKLEIKRTVAAPDIQMTQSPSSLSASVGDRVTITCSASQDISNYLNWYQQKPGKAPKVLIYFTSSLHSGVPSRFSGSGSGTDFTLTISSLQPEDFATYYCQQYSTVPWTFGQGTKVEIKR
notes: HC vector V1 (wild-type hIgG1 constant), LC vector V2 (kappa constant); also called VD260H; VD260L
[4]
  EC50: 0.12 nM

B7: AB062 (anti-ErbB3 (seq. 1) parent antibody) (antibody, IgG1, V domains shown)
VH: QVQLQQWGAGLLKPSETLSLTCAVYGGSFSGYYWSWIRQPPGKGLEWIGEINHSGSTNYNPSLKSRVTISVETSKNQFSLKLSSVTAADTAVYYCARDKWTWYFDLWGRGTLVTVSS
VL: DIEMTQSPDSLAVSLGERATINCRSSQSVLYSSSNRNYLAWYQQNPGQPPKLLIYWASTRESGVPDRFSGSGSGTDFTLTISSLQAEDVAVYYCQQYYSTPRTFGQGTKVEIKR
notes: HC vector V1 (wild-type hIgG1 constant), LC vector V2 (kappa constant); also called AB062VH; AB062VL
[5]
  EC50: 1.93 nM

B8: AB063 (anti-ErbB3 (seq. 2) parent antibody) (antibody, IgG1, V domains shown)
VH: EVQLVESGGGLVQPGGSLRLSCAASGFTFSIYSMNWVRQAPGKGLEWVSYISSSSSTIYYADSVKGRFTISRDNAKNSLYLQMNSLRDEDTAVYYCARDRGDFDAFDIWGQGTMVTVSS
VL: DIQMTQSPSSLSASVGDRVTITCQASQDITNYLNWYQQKPGKAPKLLIYDASNLETGVPSRFSGSGSGTDFTFTISSLQPEDIATYNCQQCENFPITFGQGTRLEIKR
notes: HC vector V1 (wild-type hIgG1 constant), LC vector V2 (kappa constant); also called AB063VH; AB063VL
[5]
  EC50: 0.28 nM

B9: DVD043 (VEGF (seq. 1) N-terminal / DLL4 (seq. 1) C-terminal DVD-Ig) (bispecific antibody, human IgG1, kappa)
heavy: not shown
light: DIQMTQSPSSLSASVGDRVTITCSASQDISNYLNWYQQKPGKAPKVLIYFTSSLHSGVPSRFSGSGSGTDFTLTISSLQPEDFATYYCQQYSTVPWTFGQGTKVEIKRTVAAPDIQMTQSPSSLSASVGDRVTITCRASQDVSTAVAWYQQKPGKAPKLLIYSASFLYSGVPSRFSGSGSGTDFTLTISSLQPEDFATTYYCQQSYTGTVTFGQGTKVEIKRTVAAPSVFIFPPSDEQLKSGTASVVCLLNNFYPREAKVQWKVDNALQSGNSQESVTEQDSKDSTYSLSSTLTLSKADYEKHKVYACEVTHQGLSSPVTKSFNRGEC
notes: also called DVD043H/DVD043L
[6]
  IC50: 13.1 nM

B10: DVD258 (PLGF (seq. 1) N-terminal / DLL-4 (seq. 1) C-terminal DVD-Ig) (bispecific antibody, human IgG1, kappa)
heavy: not shown
light: DIVLTQSPDSLAVSLGERVTMNCKSSQSLLNSGMRKSFLAWYQQKPGQSPKLLIYWASTRESGVPDRFTGSGSGTDFTLTISSVQAEDVAVYYCKQSYHLFTFGSGTKLEIKRTVAAPDIQMTQSPSSLSASVGDRVTITCRASQDVSTAVAWYQQKPGKAPKLLIYSASFLYSGVPSRFSGSGSGTDFTLTISSLQPEDFATTYYCQQSYTGTVTFGQGTKVEIKRTVAAPSVFIFPPSDEQLKSGTASVVCLLNNFYPREAKVQWKVDNALQSGNSQESVTEQDSKDSTYSLSSTLTLSKADYEKHKVYACEVTHQGLSSPVTKSFNRGEC
notes: also called VD258H; VD258L
[6]
  IC50: 17.5 nM
